Data set [1] concerns the target MTA1-C (residues 162–715) (human) (UniProt Q13330). As to the kind of experiment: affinity purification with mass spectrometry; Flag-tagged MTA1 fragments co-transfected with HDAC1 in HEK293F; complexes purified on FLAG resin; endogenous RBBP4/7 identified by peptide mass spectrometry; ratio by densitometry of the SDS-PAGE gel (ImageJ).
Data set [2] concerns the target MTA1-B (residues 162–546) (human) (UniProt Q13330). Described as above.
Data set [3] concerns the target MTA1-A (residues 162–354) (human) (UniProt Q13330). As to the kind of experiment: SEC-MALS; gel-filtrated co-expressed complexes at 1 mg/ml reapplied to Superdex S200; Optilab T-rEX and DAWN HELEOS detectors.
In data set [4] the target is T1, RBBP4 (residues 1–425), untagged (human, UniProt Q09028 1-425).
T1 construct: also called RbAp48; source: HEK293F, co-transfected with MTA1 fragments, co-purified (FLAG resin through MTA1, TEV elution, Superdex S200)
Described as above. The conditions noted are these: both partners purified.

Data set [5] concerns the molecule itself. Described as above.
The target of data set [6] is T2, HDAC1 (residues 1–482), untagged (human, UniProt Q13547 1-482).
T2 construct: Histone deacetylase 1 (HDAC1), residues 1-482; source: HEK293F, co-transfected with MTA1 fragments, co-purified (FLAG resin through MTA1, TEV elution, Superdex S200)
As to the kind of experiment: SAXS; purified co-expressed complexes, 1 to 5 mg/ml, 25°C, Diamond B21; ab initio envelopes. The conditions noted are these: both partners purified.

T1 sequence (Q09028 whole entry, the tested form may be a part): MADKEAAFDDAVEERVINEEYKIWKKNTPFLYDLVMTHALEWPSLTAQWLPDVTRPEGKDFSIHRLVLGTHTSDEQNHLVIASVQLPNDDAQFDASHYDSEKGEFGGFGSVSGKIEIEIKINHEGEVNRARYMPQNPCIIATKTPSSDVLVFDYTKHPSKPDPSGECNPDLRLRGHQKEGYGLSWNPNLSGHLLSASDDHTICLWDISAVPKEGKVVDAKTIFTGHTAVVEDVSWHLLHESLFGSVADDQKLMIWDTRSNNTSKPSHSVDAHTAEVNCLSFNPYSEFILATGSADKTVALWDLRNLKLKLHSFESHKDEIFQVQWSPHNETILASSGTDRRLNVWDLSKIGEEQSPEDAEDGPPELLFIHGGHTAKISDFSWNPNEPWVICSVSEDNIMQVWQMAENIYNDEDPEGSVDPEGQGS
T2 sequence (Q13547 whole entry, the tested form may be a part): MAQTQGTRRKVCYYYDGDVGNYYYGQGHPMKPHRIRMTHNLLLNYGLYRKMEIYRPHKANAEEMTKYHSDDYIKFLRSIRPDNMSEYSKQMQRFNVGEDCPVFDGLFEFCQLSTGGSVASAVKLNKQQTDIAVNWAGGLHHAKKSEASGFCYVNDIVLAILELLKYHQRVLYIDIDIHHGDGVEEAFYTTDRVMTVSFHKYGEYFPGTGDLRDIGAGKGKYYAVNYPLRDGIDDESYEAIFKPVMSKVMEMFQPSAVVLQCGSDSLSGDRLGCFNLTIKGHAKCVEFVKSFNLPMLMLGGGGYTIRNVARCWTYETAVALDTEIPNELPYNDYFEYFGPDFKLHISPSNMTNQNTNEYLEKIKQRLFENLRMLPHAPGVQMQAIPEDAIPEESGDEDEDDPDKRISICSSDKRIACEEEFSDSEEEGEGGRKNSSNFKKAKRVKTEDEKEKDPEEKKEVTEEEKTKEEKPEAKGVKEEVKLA

As for “endogenous RBBP4/7 (from UniProt Q09028 1-425) (natural protein)”, the ratio HDAC1:RBBP4/7 (gel densitometry) (RBBP4/7 per HDAC1) in data set [1] stood at 1.5; in data set [2], 1.
The molecule “MTA1-A (residues 162–354) (from UniProt Q13330 162-354) (domain or fragment)” gave a stoichiometry N (copies in the complex) in data set [3] of 2.

B1: MTA1-B (residues 162–546) (domain or fragment, human, UniProt Q13330 162-546, looked up)
chain: ADKGEIRVGNRYQADITDLLKEGEEDGRDQSRLETQVWEAHNPLTDKQIDQFLVVARSVGTFARALDCSSSVRQPSLHMSAAAASRDITLFHAMDTLHKNIYDISKAISALVPQGGPVLCRDEMEEWSASEANLFEEALEKYGKDFTDIQQDFLPWKSLTSIIEYYYMWKTTDRYVQQKRLKAAEAESKLKQVYIPNYNKPNPNQISVNNVKAGVVNGTGAPGQSPGAGRACESCYTTQSYQWYSWGPPNMQCRLCASCWTYWKKYGGLKMPTRLDGERPGPNRSNMSPHGLPARSSGSPKFAMKTRQAFYLHTTKLTRIARRLCREILRPWHAARHPYLPINSAAIKAECTARLPEASQSPLVLKQAVRKPLEAVLRYLETHPR
notes: Captured on FLAG resin by the tag, then released with TEV; Two copies in the dimeric MTA1-B:HDAC1:RBBP4 complex by MALS; not shown: His10, N-terminal, cleaved; Flag3, N-terminal, cleaved
As usually defined, the stoichiometry N is a count of units in the complex or per binding partner. As for B1, the binding result in data set [4] and in data set [6] was “binds” in each case. For the same molecule, the “stoichiometry N” value in data set [5] amounted to 2 copies in the complex.

(Values after PMC4841774 (eLife, 2016).)
